Experimental data published in patent US20120220015.

Assays:
[1] = target: T1, α2-antiplasmin, P08697
T1 chain: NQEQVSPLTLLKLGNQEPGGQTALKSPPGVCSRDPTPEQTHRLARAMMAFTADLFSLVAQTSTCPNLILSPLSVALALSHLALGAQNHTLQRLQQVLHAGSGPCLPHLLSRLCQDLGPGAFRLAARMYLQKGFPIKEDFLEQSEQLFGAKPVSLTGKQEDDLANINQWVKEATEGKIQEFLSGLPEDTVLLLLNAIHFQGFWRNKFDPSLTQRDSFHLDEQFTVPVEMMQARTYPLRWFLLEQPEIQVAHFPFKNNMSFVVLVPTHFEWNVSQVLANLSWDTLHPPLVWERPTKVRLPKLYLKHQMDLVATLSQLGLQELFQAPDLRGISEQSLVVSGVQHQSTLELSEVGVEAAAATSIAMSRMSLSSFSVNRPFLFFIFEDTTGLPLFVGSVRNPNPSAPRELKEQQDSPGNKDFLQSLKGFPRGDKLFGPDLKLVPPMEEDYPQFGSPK

[2] = target: T2, fibrin (clot formed from purified fibrinogen with α-thrombin), P02671
T2 chain 1: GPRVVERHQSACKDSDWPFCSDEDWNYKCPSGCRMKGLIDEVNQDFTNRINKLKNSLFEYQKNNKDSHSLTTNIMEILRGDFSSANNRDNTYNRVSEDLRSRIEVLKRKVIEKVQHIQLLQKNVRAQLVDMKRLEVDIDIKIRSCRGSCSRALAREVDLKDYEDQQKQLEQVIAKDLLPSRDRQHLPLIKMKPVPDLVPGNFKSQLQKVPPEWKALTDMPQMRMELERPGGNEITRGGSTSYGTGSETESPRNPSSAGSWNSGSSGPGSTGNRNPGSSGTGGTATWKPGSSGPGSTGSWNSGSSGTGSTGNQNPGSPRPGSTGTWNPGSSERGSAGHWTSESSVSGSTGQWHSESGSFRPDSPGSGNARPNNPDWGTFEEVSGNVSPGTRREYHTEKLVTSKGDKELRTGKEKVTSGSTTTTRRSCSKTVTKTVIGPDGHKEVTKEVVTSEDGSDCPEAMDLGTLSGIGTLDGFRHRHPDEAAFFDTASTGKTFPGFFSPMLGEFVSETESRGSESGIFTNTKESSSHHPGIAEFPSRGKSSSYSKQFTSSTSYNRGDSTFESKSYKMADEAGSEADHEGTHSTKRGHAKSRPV
T2 chain 2: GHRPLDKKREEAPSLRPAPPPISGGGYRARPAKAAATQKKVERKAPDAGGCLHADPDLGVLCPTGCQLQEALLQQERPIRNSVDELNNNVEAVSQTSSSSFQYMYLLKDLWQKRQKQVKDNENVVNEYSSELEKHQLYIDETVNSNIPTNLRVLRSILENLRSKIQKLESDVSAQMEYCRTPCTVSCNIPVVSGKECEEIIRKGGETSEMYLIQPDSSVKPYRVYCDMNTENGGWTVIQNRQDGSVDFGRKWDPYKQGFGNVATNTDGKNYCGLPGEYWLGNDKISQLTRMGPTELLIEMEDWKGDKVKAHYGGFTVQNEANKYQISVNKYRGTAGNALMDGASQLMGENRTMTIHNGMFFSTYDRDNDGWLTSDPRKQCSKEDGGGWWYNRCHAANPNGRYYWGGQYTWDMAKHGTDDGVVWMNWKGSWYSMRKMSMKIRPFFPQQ
T2 chain 3: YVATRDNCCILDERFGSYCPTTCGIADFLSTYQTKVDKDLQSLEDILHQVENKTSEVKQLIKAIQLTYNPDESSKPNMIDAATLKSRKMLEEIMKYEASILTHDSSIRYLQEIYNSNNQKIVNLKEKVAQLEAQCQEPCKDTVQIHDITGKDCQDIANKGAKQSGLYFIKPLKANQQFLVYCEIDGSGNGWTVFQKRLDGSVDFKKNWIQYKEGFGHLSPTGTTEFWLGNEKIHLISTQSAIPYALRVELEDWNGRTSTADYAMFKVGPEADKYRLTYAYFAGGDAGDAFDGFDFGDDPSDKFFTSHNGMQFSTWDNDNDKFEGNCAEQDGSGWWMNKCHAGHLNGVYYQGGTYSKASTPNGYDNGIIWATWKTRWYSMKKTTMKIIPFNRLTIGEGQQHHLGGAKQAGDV

B1: Lemna-derived plasmin from transgenic line BAP12-B2-150 (aglycosylated plasmin derived from mature human plasminogen with the N289D substitution) (protein)
chain 1: KVYLSECKTGNGKNYRGTMSKTKNGITCQKWSSTSPHRPRFSPATHPSEGLEENYCRNPDNDPQGPWCYTTDPEKRYDYCDILECEEECMHCSGENYDGKISKTMSGLECQAWDSQSPHAHGYIPSKFPNKNLKKNYCRNPDRELRPWCFTTDPNKRWELCDIPRCTTPPPSSGPTYQCLKGTGENYRGNVAVTVSGHTCQHWSAQTPHTHDRTPENFPCKNLDENYCRNPDGKRAPWCHTTNSQVRWEYCKIPSCDSSPVSTEQLAPTAPPELTPVVQDCYHGDGQSYRGTSSTTTTGKKCQSWSSMTPHRHQKTPENYPNAGLTMNYCRNPDADKGPWCFTTDPSVRWEYCNLKKCSGTEASVVAPPPVVLLPDVETPSEEDCMFGNGKGYRGKRATTVTGTPCQDWAAQEPHRHSIFTPETNPRAGLEKNYCRNPDGDVGGPWCYTTNPRKLYDYCDVPQCAAPSFDCGKPQVEPKKCPGR
chain 2: VVGGCVAHPHSWPWQVSLRTRFGMHFCGGTLISPEWVLTAAHCLEKSPRPSSYKVILGAHQEVNLEPHVQEIEVSRLFLEPTRKDIALLKLSSPAVITDKVIPACLPSPNYVVADRTECFVTGWGETQGTFGAGLLKEAQLPVIENKVCNRYEFLNGRVQSTELCAGHLAGGTDSCQGDSGGPLVCFEKDKYILQGVTSWGLGCARPNKPGVYVRVSRFVTWIEGVMRNN
[1]
  plasmin activity (S-2403 hydrolysis at 405 nm) after 30 minutes pre-incubation with α2-AP, plasmin:α2-AP molar ratio of 1:1: no plasmin activity was detected for human, BAP12-B2-150, or BAP01-B1-230 plasmin, indicating that the inhibition was complete
[2]
  fibrin clot lysis (decrease of turbidity at 340 nm), plasmin at 500, 250, 125 and 62 nM: There was no evidence of a difference between fibrinolysis induced by plasmin derived from BAP01-B2-230 and BAP12-B2-150; their respective lysis profiles were very similar for all four plasmin concentrations

B2: Lemna-derived plasmin from transgenic line BAP01-B2-230 (derived from mature human plasminogen with the N-linked glycosylation site Asn-289) (protein)
chain 1: KVYLSECKTGNGKNYRGTMSKTKNGITCQKWSSTSPHRPRFSPATHPSEGLEENYCRNPDNDPQGPWCYTTDPEKRYDYCDILECEEECMHCSGENYDGKISKTMSGLECQAWDSQSPHAHGYIPSKFPNKNLKKNYCRNPDRELRPWCFTTDPNKRWELCDIPRCTTPPPSSGPTYQCLKGTGENYRGNVAVTVSGHTCQHWSAQTPHTHNRTPENFPCKNLDENYCRNPDGKRAPWCHTTNSQVRWEYCKIPSCDSSPVSTEQLAPTAPPELTPVVQDCYHGDGQSYRGTSSTTTTGKKCQSWSSMTPHRHQKTPENYPNAGLTMNYCRNPDADKGPWCFTTDPSVRWEYCNLKKCSGTEASVVAPPPVVLLPDVETPSEEDCMFGNGKGYRGKRATTVTGTPCQDWAAQEPHRHSIFTPETNPRAGLEKNYCRNPDGDVGGPWCYTTNPRKLYDYCDVPQCAAPSFDCGKPQVEPKKCPGR
chain 2: VVGGCVAHPHSWPWQVSLRTRFGMHFCGGTLISPEWVLTAAHCLEKSPRPSSYKVILGAHQEVNLEPHVQEIEVSRLFLEPTRKDIALLKLSSPAVITDKVIPACLPSPNYVVADRTECFVTGWGETQGTFGAGLLKEAQLPVIENKVCNRYEFLNGRVQSTELCAGHLAGGTDSCQGDSGGPLVCFEKDKYILQGVTSWGLGCARPNKPGVYVRVSRFVTWIEGVMRNN
[1]
  plasmin activity (S-2403 hydrolysis at 405 nm) after 30 minutes pre-incubation with α2-AP, plasmin:α2-AP molar ratio of 1:1: no plasmin activity was detected for human, BAP12-B2-150, or BAP01-B1-230 plasmin, indicating that the inhibition was complete
[2]
  fibrin clot lysis (decrease of turbidity at 340 nm), plasmin at 500, 250, 125 and 62 nM: There was no evidence of a difference between fibrinolysis induced by plasmin derived from BAP01-B2-230 and BAP12-B2-150; their respective lysis profiles were very similar for all four plasmin concentrations
